Experimental data taken from US5990094A, “Inhibitors of sorotonin N-acetyltransferase” (The Rockefeller University, priority 1998, dated 1999).

Tests used:
Test in all cases: purified protein, by the assay type
[1] = substrate: NCCc1c[nH]c2ccc(O)cc12
[2] = substrate: NCCc1c[nH]c2ccccc12
[3] = substrate: CC(=O)SCCNC(=O)CCNC(=O)[C@H](O)C(C)(C)COP(=O)(O)OP(=O)(O)OC[C@H]1O[C@@H](n2cnc3c(N)ncnc32)[C@H](O)[C@@H]1OP(=O)(O)O
[4] = substrate: CC(N)Cc1c[nH]c2ccccc12; conditions: other: Table 1, tryptamine analogs
[5] = substrate: CNCCc1c[nH]c2ccccc12; conditions: other: Table 1, tryptamine analogs
[6] = other: 1 mM (near saturating) concentration of the fixed substrate, GST-AANAT
[7] = other: ionic strength I~0.1, GST-AANAT
[8] = other: Table 1, tryptamine analogs

B1: GST-AANAT fusion (Ovis aries) (protein)
chain: MSTPSVHCLKPSPLHLPSGIPGSPGRQRRHTLPANEFRCLTPEDAAGVFEIEREAFISVSGNCPLNLDEVQHFLTLCPELSLGWFVEGRLVAFIIGSLWDEERLTQESLALHRPRGHSAHLHALAVHRSFRQQGKGSVLLWRYLHHVGAQPAVRRAVLMCEDALVPFYQRFGFHPAGPCAIVVGSLTFTEMHCSLRGHAALRRNSDR
Q: B1 was tested. Which Km [1, 6] did it give?
A: 241 µM

Q: And the Km [2, 7]?
A: 100 µM

Q: And the Km [3, 6]?
A: 289 µM

Q: And the Km [3, 7]?
A: 100 µM

B2: unmodified AANAT (Ovis aries) (protein)
chain: MSTPSVHCLKPSPLHLPSGIPGSPGRQRRHTLPANEFRCLTPEDAAGVFEIEREAFISVSGNCPLNLDEVQHFLTLCPELSLGWFVEGRLVAFIIGSLWDEERLTQESLALHRPRGHSAHLHALAVHRSFRQQGKGSVLLWRYLHHVGAQPAVRRAVLMCEDALVPFYQRFGFHPAGPCAIVVGSLTFTEMHCSLRGHAALRRNSDR
Q: With B2 as the protein, how does the Km ([3]; other: 1 mM (near saturating) concentration of the fixed substrate, AANAT) read?
A: 178 µM

B3: AANAT (Ovis aries) (protein)
chain: MSTPSVHCLKPSPLHLPSGIPGSPGRQRRHTLPANEFRCLTPEDAAGVFEIEREAFISVSGNCPLNLDEVQHFLTLCPELSLGWFVEGRLVAFIIGSLWDEERLTQESLALHRPRGHSAHLHALAVHRSFRQQGKGSVLLWRYLHHVGAQPAVRRAVLMCEDALVPFYQRFGFHPAGPCAIVVGSLTFTEMHCSLRGHAALRRNSDR
Q: B3 was tested. Which Km [1, 8] did it give?
A: 240 µM

Q: What about the Km [2, 8] of the same protein?
A: 170 µM

Q: What about the Km [4] of the same protein?
A: 2700 µM

Q: And the Km [5]?
A: 3800 µM
